From patent publication US20110008345A1 (GlaxoSmithKline, published 2011)
Values joined by “and” are separate entries in the source; they are usually repeats but may differ in a detail not shown here. Equal entries are not always repeated.

How the values were obtained:
[1] = molecular target: T1, recombinant E. coli-expressed human IL-13 (human, UniProt P35225 35-146); experiment: SPR
T1 construct: made and purified at GSK; also called Interleukin-13; rhIL-13

[2] = molecular target: T2, recombinant E. coli-expressed human IL-4 (human, UniProt P05112 25-153); experiment: SPR
T2 construct: made and purified at GSK; also called Interleukin-4; rhIL-4
T2 sequence: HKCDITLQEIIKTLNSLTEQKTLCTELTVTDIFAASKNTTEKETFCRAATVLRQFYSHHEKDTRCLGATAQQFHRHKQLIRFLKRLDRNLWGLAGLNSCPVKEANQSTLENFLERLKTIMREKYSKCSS

[3] = molecular target: T1, recombinant E. coli-expressed human …; experiment: SPR exp 1
[4] = molecular target: T2, recombinant E. coli-expressed human IL-4; experiment: SPR exp 1
[5] = molecular target: T3, recombinant E. coli-expressed cynomolgus IL-13 (cynomolgus, UniProt Q0PW92 21-132); experiment: SPR
T3 construct: also called cyno IL-13

[6] = molecular target: T4, recombinant E. coli-expressed cynomolgus IL-4 (cynomolgus, UniProt P79339 25-153); experiment: SPR
T4 construct: also called cyno IL-4
T4 sequence (looked up): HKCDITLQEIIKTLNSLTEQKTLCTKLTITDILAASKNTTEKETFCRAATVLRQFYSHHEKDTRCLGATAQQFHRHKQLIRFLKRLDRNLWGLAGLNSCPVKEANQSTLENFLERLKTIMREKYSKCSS

[7] = molecular target: T2, recombinant E. coli-expressed human IL-4; experiment: SPR exp 2
[8] = molecular target: T1, recombinant E. coli-expressed human …; experiment: SPR exp 2

B1: 586H-G4S-154 (bispecific antibody, human IgG1, kappa)
heavy: not shown
light: DIVMTQSPLSLPVTPGEPASISCRSSQNIVHINGNTYLEWYLQKPGQSPRLLIYKISDRFSGVPDRFSGSGSGTDFTLKISRVEADDVGIYYCFQGSHVPWTFGQGTKLEIKRTVAAPSVFIFPPSDEQLKSGTASVVCLLNNFYPREAKVQWKVDNALQSGNSQESVTEQDSKDSTYSLSSTLTLSKADYEKHKVYACEVTHQGLSSPVTKSFNRGEC
- Kd [1]: 370 pM
- Kd [2]: 138000 pM
- koff [2]: 0.000685 s⁻¹
- kon [2]: 5000 M⁻¹ s⁻¹

B2: 586H-G4S-25 (bispecific antibody, human IgG1, kappa)
heavy: not shown
light: DIVMTQSPLSLPVTPGEPASISCRSSQNIVHINGNTYLEWYLQKPGQSPRLLIYKISDRFSGVPDRFSGSGSGTDFTLKISRVEADDVGIYYCFQGSHVPWTFGQGTKLEIKRTVAAPSVFIFPPSDEQLKSGTASVVCLLNNFYPREAKVQWKVDNALQSGNSQESVTEQDSKDSTYSLSSTLTLSKADYEKHKVYACEVTHQGLSSPVTKSFNRGEC
- Kd [1]: 410 pM
- Kd [2]: 151000 pM
- koff [2]: 0.000954 s⁻¹
- kon [2]: 6300 M⁻¹ s⁻¹

B3: PascoH-TVAAPS-474 (bispecific antibody, human IgG1, kappa)
heavy: not shown
light: DIVLTQSPSSLSASVGDRVTITCKASQSVDYDGDSYMNWYQQKPGKAPKLLIYAASNLESGIPSRFSGSGSGTDFTFTISSLQPEDIATYYCQQSNEDPPTFGQGTKVEIKRTVAAPSVFIFPPSDEQLKSGTASVVCLLNNFYPREAKVQWKVDNALQSGNSQESVTEQDSKDSTYSLSSTLTLSKADYEKHKVYACEVTHQGLSSPVTKSFNRGEC
- Kd [3]: 940 pM
- koff [3]: 0.00042 s⁻¹
- kon [3]: 450000 M⁻¹ s⁻¹
- Kd [4]: 20 pM
- koff [4]: 9.7e-05 s⁻¹
- kon [4]: 5.5e+06 M⁻¹ s⁻¹
- Kd [5]: 27100 pM
- koff [5]: 0.0117 s⁻¹
- kon [5]: 433000 M⁻¹ s⁻¹
- Kd [6]: 49.1 pM
- koff [6]: 8.85e-05 s⁻¹
- kon [6]: 1.8e+06 M⁻¹ s⁻¹

B4: PascoH-EPKSC-474 (bispecific antibody, human IgG1, kappa)
heavy: not shown
light: DIVLTQSPSSLSASVGDRVTITCKASQSVDYDGDSYMNWYQQKPGKAPKLLIYAASNLESGIPSRFSGSGSGTDFTFTISSLQPEDIATYYCQQSNEDPPTFGQGTKVEIKRTVAAPSVFIFPPSDEQLKSGTASVVCLLNNFYPREAKVQWKVDNALQSGNSQESVTEQDSKDSTYSLSSTLTLSKADYEKHKVYACEVTHQGLSSPVTKSFNRGEC
- Kd [3]: 1100 pM
- koff [3]: 0.0004 s⁻¹
- kon [3]: 350000 M⁻¹ s⁻¹
- Kd [4]: 20 pM
- koff [4]: 9.8e-05 s⁻¹
- kon [4]: 4.9e+06 M⁻¹ s⁻¹

B5: PascoH-ELQLE-474 (bispecific antibody, human IgG1, kappa)
heavy: not shown
light: DIVLTQSPSSLSASVGDRVTITCKASQSVDYDGDSYMNWYQQKPGKAPKLLIYAASNLESGIPSRFSGSGSGTDFTFTISSLQPEDIATYYCQQSNEDPPTFGQGTKVEIKRTVAAPSVFIFPPSDEQLKSGTASVVCLLNNFYPREAKVQWKVDNALQSGNSQESVTEQDSKDSTYSLSSTLTLSKADYEKHKVYACEVTHQGLSSPVTKSFNRGEC
- Kd [3]: 1800 pM
- koff [3]: 0.00062 s⁻¹
- kon [3]: 340000 M⁻¹ s⁻¹
- Kd [4]: 20 pM
- koff [4]: 0.00011 s⁻¹
- kon [4]: 5.1e+06 M⁻¹ s⁻¹

B6: PascoH-ASTKG-474 (bispecific antibody, human IgG1, kappa)
heavy: not shown
light: DIVLTQSPSSLSASVGDRVTITCKASQSVDYDGDSYMNWYQQKPGKAPKLLIYAASNLESGIPSRFSGSGSGTDFTFTISSLQPEDIATYYCQQSNEDPPTFGQGTKVEIKRTVAAPSVFIFPPSDEQLKSGTASVVCLLNNFYPREAKVQWKVDNALQSGNSQESVTEQDSKDSTYSLSSTLTLSKADYEKHKVYACEVTHQGLSSPVTKSFNRGEC
- Kd [3]: 1500 pM
- koff [3]: 0.00046 s⁻¹
- kon [3]: 310000 M⁻¹ s⁻¹
- Kd [4]: 20 pM
- koff [4]: 8.6e-05 s⁻¹
- kon [4]: 5.3e+06 M⁻¹ s⁻¹
- Kd [5]: 29500 pM
- koff [5]: 0.0107 s⁻¹
- kon [5]: 364000 M⁻¹ s⁻¹
- Kd [6]: 44.5 pM
- koff [6]: 7.9e-05 s⁻¹
- kon [6]: 1.78e+06 M⁻¹ s⁻¹

B7: PascoL-EPKSC-474 (bispecific antibody, human IgG1, kappa)
heavy: not shown
light: DIVLTQSPSSLSASVGDRVTITCKASQSVDYDGDSYMNWYQQKPGKAPKLLIYAASNLESGIPSRFSGSGSGTDFTFTISSLQPEDIATYYCQQSNEDPPTFGQGTKVEIKRTVAAPSVFIFPPSDEQLKSGTASVVCLLNNFYPREAKVQWKVDNALQSGNSQESVTEQDSKDSTYSLSSTLTLSKADYEKHKVYACEVTHQGLSSPVTKSFNRGECEPKSCDKTHTCPPCPGSGVQLLESGGGLVQPGGSLRLSCAASGFTFAWYDMGWVRQAPGKGLEWVSSIDWHGEVTYYADSVKGRFTISRDNSKNTLYLQMNSLRAEDTAVYYCATAEDEPGYDYWGQGTLVTVSS
- Kd [7]: 139 pM and 127 pM
- koff [7]: 0.000258 s⁻¹ and 0.000318 s⁻¹
- kon [7]: 1.86e+06 M⁻¹ s⁻¹ and 2.51e+06 M⁻¹ s⁻¹
- Kd [8]: 801 pM and 815 pM
- koff [8]: 0.000334 s⁻¹ and 0.000286 s⁻¹
- kon [8]: 417000 M⁻¹ s⁻¹ and 351000 M⁻¹ s⁻¹

B8: PascoL-474 (bispecific antibody, human IgG1, kappa)
heavy: not shown
light: DIVLTQSPSSLSASVGDRVTITCKASQSVDYDGDSYMNWYQQKPGKAPKLLIYAASNLESGIPSRFSGSGSGTDFTFTISSLQPEDIATYYCQQSNEDPPTFGQGTKVEIKRTVAAPSVFIFPPSDEQLKSGTASVVCLLNNFYPREAKVQWKVDNALQSGNSQESVTEQDSKDSTYSLSSTLTLSKADYEKHKVYACEVTHQGLSSPVTKSFNRGECGSGVQLLESGGGLVQPGGSLRLSCAASGFTFAWYDMGWVRQAPGKGLEWVSSIDWHGEVTYYADSVKGRFTISRDNSKNTLYLQMNSLRAEDTAVYYCATAEDEPGYDYWGQGTLVTVSS
- Kd [7]: 65 pM and 48 pM
- koff [7]: 0.000184 s⁻¹ and 0.000122 s⁻¹
- kon [7]: 2.8e+06 M⁻¹ s⁻¹ and 2.53e+06 M⁻¹ s⁻¹
- Kd [8]: 1340 pM and 1240 pM
- koff [8]: 0.000382 s⁻¹ and 0.000386 s⁻¹
- kon [8]: 286000 M⁻¹ s⁻¹ and 312000 M⁻¹ s⁻¹
